The values below come from publication PMC3285366.

For the test, the target named is T1, Mps1(1–239) (human), P33981.
T1 chain: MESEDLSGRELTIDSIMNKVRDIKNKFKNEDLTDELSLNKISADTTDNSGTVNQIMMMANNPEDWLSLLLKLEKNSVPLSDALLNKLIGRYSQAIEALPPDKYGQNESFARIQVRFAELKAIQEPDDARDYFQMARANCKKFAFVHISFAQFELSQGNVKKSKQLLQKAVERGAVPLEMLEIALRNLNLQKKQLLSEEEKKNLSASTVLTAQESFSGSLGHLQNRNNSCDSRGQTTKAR
Nature of the test: SEC. As to conditions: remark: other sources report otherwise.

B1: Mps1(1–239), P33981 1-239 (domain or fragment)
chain: T1 chain
The stoichiometry N is a count of units in the complex or per binding partner. B1 returned a stoichiometry N of 2.
